Experimental data from paper PMC5610937 (Journal of molecular biology, 2017).

Legend:
[1] = target: human ROR2 ectopically and stably expressed on mouse pre-B cell line 63-12 (Homo sapiens (Human)., UniProt Q01974); experiment: flow cytometry on cells
[2] = target: T1, Fc-hROR2 protein (Homo sapiens (Human)., UniProt Q01974); experiment: ELISA
[3] = target: human Fc fusion protein of the extracellular domain of mouse ROR1 (Mus musculus (Mouse)., UniProt Q9Z139); experiment: ELISA
[4] = target: human ROR1 ectopically and stably expressed on mouse pre-B cell line 63-12 (Homo sapiens (Human)., UniProt Q01973); experiment: flow cytometry on cells
[5] = target: mouse ROR2 extracellular domains displayed on HEK293F cells (Mus musculus (Mouse)., UniProt Q9Z138); experiment: flow cytometry on cells
[6] = target: T1, Fc-hROR2 protein; experiment: SPR

Chain of human Fc fusion protein of the extracellular domain of mouse ROR1 (Q9Z139 30-406): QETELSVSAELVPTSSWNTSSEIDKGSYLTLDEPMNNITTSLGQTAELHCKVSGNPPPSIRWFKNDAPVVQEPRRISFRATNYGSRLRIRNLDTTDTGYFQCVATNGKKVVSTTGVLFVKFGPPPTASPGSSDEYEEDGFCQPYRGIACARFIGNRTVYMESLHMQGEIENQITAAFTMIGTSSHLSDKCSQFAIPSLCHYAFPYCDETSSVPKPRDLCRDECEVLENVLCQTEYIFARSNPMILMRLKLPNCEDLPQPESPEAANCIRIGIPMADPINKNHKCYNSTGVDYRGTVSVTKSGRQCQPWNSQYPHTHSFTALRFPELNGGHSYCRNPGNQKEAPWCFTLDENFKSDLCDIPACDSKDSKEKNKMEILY
Chain of mouse ROR2 extracellular domains displayed on HEK293F cells (Q9Z138 34-403): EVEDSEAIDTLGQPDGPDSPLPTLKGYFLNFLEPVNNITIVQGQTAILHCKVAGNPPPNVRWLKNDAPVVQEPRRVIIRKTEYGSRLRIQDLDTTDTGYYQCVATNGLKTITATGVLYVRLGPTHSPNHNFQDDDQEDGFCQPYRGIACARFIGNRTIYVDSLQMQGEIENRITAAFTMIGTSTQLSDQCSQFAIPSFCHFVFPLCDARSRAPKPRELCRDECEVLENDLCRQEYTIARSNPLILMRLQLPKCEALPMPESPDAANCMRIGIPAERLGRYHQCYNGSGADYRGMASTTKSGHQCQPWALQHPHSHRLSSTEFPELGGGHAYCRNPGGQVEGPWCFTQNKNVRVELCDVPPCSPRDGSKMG

| binding result [1] | binding result [2] | binding result [3] | binding result [4] | binding result [5] | Kd [6] [nM] | Binder |
| --- | --- | --- | --- | --- | --- | --- |
| no binding (tested: 10 μg/mL) | no binding (tested: 100 ng Fab in 50 μL) | no binding (tested: 100 ng Fab in 50 μL) | – | – | – | chimeric rabbit/human anti-human ROR1 Fab ERR1-409 (Fab, V domains shown) VH: QEQLVESGGRLVTPGGSLTLTCTASGFSLSSYYMGWVRQAPGKGLEWIGTIYGGSGSTWYASWVKGRFTISKTSTAVDLKITSLTTEDTATYFCARSYPGWTTEPYFDIWGPGTLVTVSS VL: QFVLTQPQSVSGSLGQTVSISCNRDSGNIEDYYVHWYQQHPGKAPTTVIYNDDQRPSGVPDRFSGSIDSTSNSASLTITGLLAEDEADYYCLSSDSSAYVFGGGTQLTVT |
| – | – | – | no binding | binds | 2280 | chimeric rabbit/human anti-human ROR2 Fab XBR2-433 (Fab, V domains shown) VH: QSVKESEGGLFKPTDTLTLTCTVSGFSLSTYGVSWVRQAPGNGLEWIGAIGSSGSANYASWAKDRSTITRNTNLNTVTLKMTSLTAADTATYFCARDGYYSSGWGPYFNIWGPGTLVTISS VL: SFVLTQPASVQVNLGQTVSLTCTADTLSRSYASWYQQKPGQAPVLLIYRDTSRPSGVPDRFSGSSSGNTATLTISGAQAGDEADYYCATSGGSGSNPQYVFGGGTQLTVT |
| no binding (tested: 10 μg/mL) | no binding (tested: 100 ng Fab in 50 μL) | no binding (tested: 100 ng Fab in 50 μL) | – | – | – | chimeric rabbit/human anti-human ROR1 Fab ERR1-TOP43 (Fab, V domains shown) VH: QSLEESGGRLVTPGTPLTLTCTVSGFSLSSYWMSWVRQAPGKGLEWIGAIYGSGNTYYASWAKGRFTISKTSTTVDLKITSPTTEDTATYFCARDVHSTATDLWGPGTLVTISS VL: SYELTQLPSVSVSLGQTARITCGGNNIGSKAVNWYQQKPGLAPGLLIYNDDERPSGVPDRFSGSNSGDTATLTISGAQAGDEADYYCQLWDSSAGAYVFGGGTQLTVT |
| no binding (tested: 10 μg/mL) | no binding (tested: 100 ng Fab in 50 μL) | no binding (tested: 100 ng Fab in 50 μL) | – | – | – | chimeric rabbit/human anti-human ROR1 Fab ERR1-TOP54 (Fab, V domains shown) VH: QSLEESGGRLVTPGTPLTLTCTASGFSLSDYYMSWVRQAPGEGLEWIGTIYGGSGNTWYATWAKGRFTISKTSTTVDLKITSPTTEDTATYFCARDFGLSTGGLWGPGTLVTISS VL: SYELTQLPSVSVSLGQTARITCGGNSIGSKAVNWYQQKPGLAPGLLIYDDDERPSGVPDRFSGSNSGDTATLTISGAQAGDEADYYCQLWDSSARAFVFGGGTQLTVT |
| no binding (tested: 10 μg/mL) | no binding (tested: 100 ng Fab in 50 μL) | no binding (tested: 100 ng Fab in 50 μL) | – | – | – | chimeric rabbit/human anti-human ROR1 Fab ERR1-316 (Fab, V domains shown) VH: QEQLEESGGRLVTPGTPLTLTCTASGFFLSSYYVSWVRQAPGKGLEWIGAIGTGGSAYYASWAKSRSTITRNTNLSTVTLKMTSLTAADTATYFCARDHPNYGMDLWGPGTLVTVSS VL: SYELTQLPSVSVSLGQTARITCGGNSIGSKAVNWYQQKPGLAPGLLIYDDDERPSGVPDRFSGSNSGDTATLTISGAQAGDEADYYCQLWDSSTGAYAFGGGTQLTVT |
| no binding (tested: 10 μg/mL) | no binding (tested: 100 ng Fab in 50 μL) | no binding (tested: 100 ng Fab in 50 μL) | – | – | – | chimeric rabbit/human anti-human ROR1 Fab ERR1-403 (Fab, V domains shown) VH: QEQLKESGRGLVQPGGSLKLSCKASGFDFSGWYMTWVRQAPGKGLEWIGTIGTTKGRTYYASWVNGRFTISSNAQNTVDLQMNSLTAADRATYFCVRGSDYFDLWGPGTLVTISS VL: SYELTQLPSVSVSLGQTARITCGGNSIGSKAVNWYQQKPGLAPGLLIYDDDERPSGVPARFSGSNSGDTATLTISGAQAGDEADYYCQLWDSSAGAYVFGGGTQLTVT |
| no binding (tested: 10 μg/mL) | no binding (tested: 100 ng Fab in 50 μL) | no binding (tested: 100 ng Fab in 50 μL) | – | – | – | chimeric rabbit/human anti-human ROR1 Fab ERR1-301 (Fab, V domains shown) VH: QEQLEESGGGLVTPGGSLTLTCTASGFTISTYHMSWVRQAPGKGLEWIGSIYAGSGSTYYASWVNGRFTISSNTTQNTVSLQMNSLTVADTATYFCARDHPSYGMDLWGPGTLVTVSS VL: SYELTQLPSVSVSLGQTARITCGGNSIGSKAVNWYQQKPGLAPGLLIYDDDERPSGVPDRFSASNSGDTATLTISGAQAEDEADYYCQLWDSSAVAYVFGGGTQLTVT |
| no binding (tested: 10 μg/mL) | no binding (tested: 100 ng Fab in 50 μL) | no binding (tested: 100 ng Fab in 50 μL) | – | – | – | chimeric rabbit/human anti-human ROR1 Fab ERR1-TOP15 (Fab, V domains shown) VH: QEQLVESGGRLVTPGGSLTLTCAASGFSPSSYWMSWVRQAPGKGLEWIGAIYVDSGSAYYASWAKSRFTISKTSSTTVDLKMTSLTTEDTAIYFCARDGWGSDVWGPGTLVTISS VL: SYELTQLPSVSVSLGQTARITCGGNSIGSKAVHWYQQKPGLAPGLLIYDDDERPSGVPDRFSGSNSGDTATLTISGAQAGDEADYYCQLWDSSAGAYVFGGGTQLTVT |
| – | – | – | no binding | binds | 52.5 | chimeric rabbit/human anti-human ROR2 Fab ERR2-302 (Fab, V domains shown) VH: QKQLVESGGGLVKPGGSLTLTCTVSGFSLSSYAIGWVRQAPGNGLEWIGIINSYGSTYYASWAKSRSTITRNTNLNTVTLKMTSLTAADTATYFCARSPYGYVSAWGYHRLDLWGQGTLVTISS VL: SYELTQLPSVSVSLGQTARITCGGASIGSKVVHWYQQKPGLAPGLLIYDDDERPSGVPDRFSGSNSGDTATLTISGAQAGDEAEYYCQLWDGSDVVFGGGTQLTVT |
| no binding (tested: 10 μg/mL) | no binding (tested: 100 ng Fab in 50 μL) | binds | – | – | – | chimeric rabbit/human anti-human ROR1 Fab ERR1-TOP22 (Fab, V domains shown) VH: QSLEESGGRLVTPGTPLTLTCTVSGFSLSSYYMSWVRQAPGKGLEWIGTISSSGSTYYASWVKGRFTISKTSTTVDLKMTSLTTEDTATYFCARDLDYDMDLWGPGTLVTVSS VL: SYELTQLPSVSVSLGQTARITCGGNSIGSKAVHWYQQKPGLAPGLLIYNDDERPSGVPDRFSGSNSGDTATLTISGAQAGDEADYYCQLWDNNAAVFGGGTQLTVT |
| no binding (tested: 10 μg/mL) | no binding (tested: 100 ng Fab in 50 μL) | no binding (tested: 100 ng Fab in 50 μL) | – | – | – | chimeric rabbit/human anti-human ROR1 Fab XBR1-402 (Fab, V domains shown) VH: QEQQKESGGGLFKPTDTLTLTCTASGFDISSYYMSWVRQAPGNGLEWIGAIGISGNAYYASWAKSRSTITRNTNLNTVTLKMTSLTAADTATYFCARDHPTYGMDLWGPGTLVTVSS VL: SYELTQLPSVSVSLGQTARITCEGNNIGSKAVHWYQQKPGLAPGLLIYDDDERPSGVPDRFSGSNSGDTATLTISGAQAGDEADYYCQVWDSSAYVFGGGTQLTVT |
| no binding (tested: 10 μg/mL) | no binding (tested: 100 ng Fab in 50 μL) | no binding (tested: 100 ng Fab in 50 μL) | – | – | – | chimeric rabbit/human anti-human ROR1 Fab ERR1-TOP4 (Fab, V domains shown) VH: QSVEESGGRLVTPGTPLTLTCTASGIDLSRYAVNWVRQAPGKGLEWIGVISGSGTTYYASWAKGRFTISKTSTTVDLKITSPTTEDTATYFCARGWATDGIFDYDDTFNLWGPGTLVTVSS VL: SYELTQLPSVSVSLGQTARITCGGDSIESKAVHWYQQKPGLAPGLLVYNDDERPSGVPDRFSGSNSGDTATLTISGAQAGDEADYYCQLWDGSAYVFGGGTQLTVT |
| – | – | – | no binding | binds | 4150 | chimeric rabbit/human anti-human ROR2 Fab XBR2-TOP72 (Fab, V domains shown) VH: QEQLEESGGRLVTPGTPLTLTCTVSGIDLSSNAMSWVRQAPGKGLEYVGFINGGGGVHYASWARGRFTISKTSTTVDLKITSPTTEDTATYFCARAGTTYYTSFNLWGPGTLVTISS VL: QFVLTQSPSASAALGSSAKLTCTLSSAHKTYTIAWYQQQQGEAPRLLMMLRTDGSYTKGTGVPDRFSGSSSGADRYLIISSVQADDAAGYYCGADYSGGYVFGGGTQLTVT |
| no binding (tested: 10 μg/mL) | no binding (tested: 100 ng Fab in 50 μL) | binds | – | – | – | chimeric rabbit/human anti-human ROR1 Fab ERR1-306 (Fab, V domains shown) VH: QEQLKESGGGLVQPGGSLKLSCKASGFDLSNYGVSWVRQAPGKGLEWIGYIDPTFDYTYYASWVNGRFSISRENTQNTVSLQINSLTPADTATYFCARWVYGVDDYGDGNWLDLWGQGTLVTISS VL: QFVLTQSPSVSAALGASAKLTCTLSSAHKTYTIDWYQQQQGEAPRYLMELKSDGSYTKGTGVPDRFSGSSSGADRYLIIPSVQADDEADYYCGTDYSGGYVFGGGTQLTVT |
